Assay results as given in PMC11477141, “Chemokine Receptor N-Terminus Charge Dictates Reliance on Post-Translational Modifications for Effective Ligand Capture and Following Boosting by Defense Peptides” (International Journal of Molecular Sciences, 2024).
Where two headings read alike, the source gives them in different places.

What was measured:
CCL2 (Homo sapiens) [1] = target: CCL2 (Homo sapiens) (UniProt P13500); conditions: cited from earlier work
CCL5 (Homo sapiens) = CCL5 (Homo sapiens) (UniProt P13501); conditions: cited from earlier work
CCL7 (Homo sapiens) = CCL7 (Homo sapiens) (UniProt P80098); conditions: cited from earlier work
CCL2 (Homo sapiens) [2] = target: CCL2 (Homo sapiens) (UniProt P13500); conditions: cited from earlier work; remark: listed apart in the source
[3] = target: T1, chemokine receptor CCR1 (untagged, wild type) (human) (UniProt P32246)
T1 sequence: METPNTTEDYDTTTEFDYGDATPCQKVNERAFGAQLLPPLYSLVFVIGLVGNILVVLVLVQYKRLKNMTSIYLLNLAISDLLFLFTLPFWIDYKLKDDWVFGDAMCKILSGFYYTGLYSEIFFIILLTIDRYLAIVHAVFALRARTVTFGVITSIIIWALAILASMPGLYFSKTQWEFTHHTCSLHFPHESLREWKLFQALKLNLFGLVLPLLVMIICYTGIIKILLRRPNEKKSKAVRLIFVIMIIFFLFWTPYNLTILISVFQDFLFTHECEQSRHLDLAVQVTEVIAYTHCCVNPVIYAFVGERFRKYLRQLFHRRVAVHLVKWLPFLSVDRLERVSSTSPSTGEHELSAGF

[4] = target: chemokine receptor CCR5 (untagged, wild type) (human) (UniProt P51681)
[5] = target: fully sulfated version of the CCR1 N-terminal peptide; set-up: method as in PMID 30567735; conditions: read-out: affinity for the fully sulfated version of the CCR1 N-terminal peptide; cited from earlier work
CCR2 D25A/D27A mutant = conditions: cited from earlier work
Text: (§1) The reliance on electrostatic interactions between basic amino acids in the chemokine and acidic regions in the receptor N-terminus for chemokine receptor binding is illustrated by a study carried out by Hemmerich et al.. To investigate the influence of charge, hydrophobicity, and aromaticity on binding of CCL2 to its cognate receptor CCR2, this group substituted all surface-exposed residues on CCL2 by alanine. […] In contr ...

CCR2 = conditions: mean ± SD; SD; read-out: binding affinity, Kd, for the WT receptor CCR2; cited from earlier work
Text: as §1

CCR1 = target: T2, CCR1 (Homo sapiens, UniProt P32246); assay: BRET CAMYEL cAMP sensor assay of ligand-induced Gαi signaling via CCR1; assay type: cell-based; conditions: n = 3
T2 construct: expressed in transfected cells; host or cells: CHO-K1, CHO-pgsB618 (GAG-minus), HEK293 WT / DeltaSia / sC
T2 sequence (P32246 1-355): T1 sequence
Description: For quantification of signaling initiated immediate downstream of receptor activation, we used the cAMP binding CAMYEL sensor to perform bioluminescence resonance energy transfer (BRET)-based assays. Shortly, in this assay increased receptor activation leads to an increase in BRET ratio. For detailed information see the Materials and Methods section.
In signaling assays testing the boosting ability of basic peptides, transfected cells were aliquoted into 96-well plates in the presence of 10 µM peptide or PBS vehicle. After R-Luc substrate addition, chemokines were added to reach final concentrations ranging from 0–100 nM (0, 0.1, 1, 10, and 100 nM) and forskolin was applied before reading emission at 475 and 525 nm.
BRET measurements of Gαi signaling and β-arrestin recruitment: Cells were seeded in 6-well plates (500,000 cells/well) and transiently transfected the following day. For BRET measurements of Gαi signaling, cells were transfected with vectors encoding the human chemokine receptors as indicated (160 ng/well) and the CAMYEL sensor (cAMP sensor, YFP-Epac-RLuc) (840 ng/well) using Lipofectamine (6 µL/well). Briefly, DNA was dissolved in 125 µL OPTI-MEM and Lipofectamine was dissolved in 125 µL OPTI-MEM. The DNA and Lipofectamine solutions were combined into a transfection mixture. The transfection mixture was added dropwise to cells incubated in OPTI-MEM (1 mL/well). Transfections were terminated after 5 h by adding 1 mL of fresh culture medium on top of the OPTI-MEM. The following day the cells were loosened from the plates in PBS with 5 mM glucose and subsequently aliquoted in white 96-well iso plates (~25,000 cells/well). When using C21TP variants and defense peptides (hBD2 and histatin), these were added to a final concentration of 10 μM/well, while an equal amount of PBS was added to control cells. The bioluminescence substrate coelenterazine was added to a final conc. of 5 µM. After 10 min, varying ligand concentrations were added. For BRET measurements of Gαi signaling, forskolin was added 5 min after the addition of the ligand, to a final conc. of 5 µM. The plates were kept in the dark at all times. A Perkin Elmer Envision machine was used for measuring the emission signals at 530 and 480 nm. The BRET signal is determined as the ratio eYFP (530 nm)/Rluc (480 nm).
BRET principle with CAMYEL: For quantification of signaling initiated immediately downstream of receptor activation, we used the cAMP binding CAMYEL sensor to perform bioluminescence resonance energy transfer (BRET) based assays. In this assay we measure changes in intracellular cAMP levels in response to receptor activation. Activation of chemokine receptors lead to a decrease in cAMP through inhibition of adenylate cyclase (AC). In the current setup we initially add forskolin that stimulates AC directly to induce an increase in intracellular cAMP, and we then measure the ability of a ligand (chemokine) to counteract the forskolin-induced increase in cAMP. The cAMP sensor (CAMYEL cAMP sensor, YFP-Epac-RLuc) carries the donor Renilla luciferase (Rluc) and the acceptor YFP. Coelenterazine is a substrate for Rluc that will emit light at around 475 nm upon enzymatic cleavage catalyzed by Rluc. When Rluc and YFP are in close proximity, the energy from the emitted light from coelenterazine can be transferred to YFP, resulting in an excitation of YFP, leading to a BRET signal around 525 nm. EPAC is a cAMP binding protein that changes conformation upon cAMP binding. During low cAMP concentrations, Rluc and YFP are near each other, and a strong BRET signal at 525 nm is obtained. When cAMP levels increase, cAMP will bind to EPAC, creating a conformational change, separating Rluc and YFP, reducing the BRET ratio, and increasing the emission from Rluc at 475 nm. Thus, by measuring the ratio between the cAMP-bound (475 nm) and the cAMP-free (525 nm) state of CAMYEL we obtain a measure of receptor activation. […]

[6] = tested on: peptide corresponding to the CCR2 receptor N-terminus; conditions: cited from earlier work
[7] = target: T3, FAM-labelled peptide corresponding to the naked (unmodified) CCR1 N-terminus (human, 5,6-carboxyfluorescein (5,6-FAM) on the N-terminus); assay: fluorescence polarisation; FAM-labelled receptor N-terminal peptide as probe at 250 nM in FP buffer (1:3, PBS:MilliQ), black 384-well plate; basic peptide titrated in a two-fold series, 12.21 nM to 100 µM (told for C21TP^81-111); triplicates; Kd fitted in GraphPad Prism 9; conditions: both partners purified
T3 construct: first printed residue of the probe; stretch of the N-terminus of the chemokine receptor CCR1, not sulfated, not glycosylated; also called CCR1 N-terminal peptide; CCR1 probe
T3 peptide: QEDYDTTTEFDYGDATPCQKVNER

Sequence of chemokine receptor CCR5 (untagged, wild type) (human) (P51681 whole entry): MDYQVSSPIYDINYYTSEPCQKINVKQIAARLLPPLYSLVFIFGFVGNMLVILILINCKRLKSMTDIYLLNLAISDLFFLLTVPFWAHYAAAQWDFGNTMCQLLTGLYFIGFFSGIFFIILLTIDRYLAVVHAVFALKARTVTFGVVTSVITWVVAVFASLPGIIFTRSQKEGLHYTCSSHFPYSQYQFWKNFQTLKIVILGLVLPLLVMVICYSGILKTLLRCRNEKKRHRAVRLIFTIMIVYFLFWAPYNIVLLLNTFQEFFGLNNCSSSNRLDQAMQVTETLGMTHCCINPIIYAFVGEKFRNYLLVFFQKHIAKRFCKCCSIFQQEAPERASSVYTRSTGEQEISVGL
Sequence of CCL2 (Homo sapiens) (P13500 24-99): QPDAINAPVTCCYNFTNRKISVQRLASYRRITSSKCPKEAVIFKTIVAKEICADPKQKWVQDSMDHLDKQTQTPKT
Sequence of CCL5 (Homo sapiens) (P13501 24-91): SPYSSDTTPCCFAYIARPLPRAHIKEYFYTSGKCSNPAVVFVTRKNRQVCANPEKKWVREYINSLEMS
Sequence of CCL7 (Homo sapiens) (P80098 24-99): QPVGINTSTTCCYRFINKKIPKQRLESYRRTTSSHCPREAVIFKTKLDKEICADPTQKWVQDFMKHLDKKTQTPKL

Molecule: CCR1 N-terminus (from UniProt P32246)
- Kd (CCL2 (Homo sapiens) [1]): 100 nM
- Kd (CCL5 (Homo sapiens)): 100 nM
- Kd (CCL7 (Homo sapiens)): 100 nM

Molecule: CCR2 (from UniProt P41597)
- Kd (CCL2 (Homo sapiens) [2]): > 3 nM

Molecule: Human CCL5 (from UniProt P13501 24-91) (ligand)
- LogEC50 of CCL5-induced Gαi signaling (CAMYEL cAMP BRET) via CCR1 in CHO GAG-minus cells [3]: -9.42
- LogEC50 of CCL5-induced Gαi signaling (CAMYEL cAMP BRET) via CCR1 in CHO GAG-plus (WT) cells [3]: -8.89
- LogEC50 of CCL5-induced Gαi signaling (CAMYEL cAMP BRET) via CCR5 in CHO GAG-minus cells [4]: -9.63
- LogEC50 of CCL5-induced Gαi signaling (CAMYEL cAMP BRET) via CCR5 in CHO GAG-plus (WT) cells [4]: -7.52

Molecule: CCL2: human chemokine from Peprotech
- Kd [5]: 100 nM
- reduction in affinity, D25A/D27A mutant versus WT CCR2 (CCR2 D25A/D27A mutant): approximately 50 fold
- Kd (CCR2 D25A/D27A mutant; read-out: binding affinity, Kd, for the D25A/D27A mutant version of CCR2): ≥ 3 nM
- Kd (CCR2): 0.066 ± 0.01 nM
- Gαi signaling response of M1-CCR1 to ligand (CCR1; M1-tagged CCR1, HEK293 WT cells): to a minor degree

Molecule: CCL7: human chemokine from Peprotech
- Kd [5]: 100 nM
- increase of chemokine binding by tyrosine sulfation of the CCR2 N-terminus peptide [6]: up to 36 fold
- Gαi signaling via CCR1 in DeltaSia and sC cells compared to WT cells (CCR1; HEK293 DeltaSia and sC): persists in DeltaSia and sC to almost the same high level as observed in WT cells

B1: C21TP^81-111, basic C-terminal peptide of the chemokine CCL21 (last 31 aa, residues 81-111) (peptide, UniProt O00585 104-134, looked up)
peptide: RKDRGASKTGKKGKGSKGCKRTERSQTPKGP
notes: also called C-terminal peptide of CCL21; source: bought: Caslo (Lyngby, Denmark)
- Kd [7]: ~2890 nM
